The target in assay [1] is scavenger receptor CD36. In words: flow cytometry on CD36-transfected CHO cells, rAv17 at 5 µg/ml; baseline 20%. Background: In flow cytometry, cells or beads pass a laser one at a time.
Assay [2] has as its target scavenger receptor CD36. In words: flow cytometry on CD36-transfected CHO cells, rAv17 at 2.5 µg/ml; baseline 20%.

The values below come from US20120184485A1.

For the substance “recombinant Acanthocheilonema viteae cystatin (rAv17)”, the fluorescence positive cells was found to be 89% with scavenger receptor CD36 [1] and 71% with scavenger receptor CD36 [2].
